Experimental data reported in the supplement of paper PMC10126150.
± gives the standard deviation of the averaged measurements.

Tested on: ATP
Assay: switch fluorescence ratio, 500 uM ATP over buffer (Cy3 cluster intensity, sum of 5 cycles each) (fold (ratio)); higher = stronger signal-on switching upon ATP binding; sequences stand for … in TCGTCGGCAGCGTCAGATGTGTATAAGAGACAGTTTTTTTTTTTTTTTTTTTTTTTTT…TC
Conditions: aptamer strand: ATP DNA aptamer (quencher-CACCTGGGGGAGTATTGCGGAGGAAGG + anchor), 100 nM annealed; ATP concentration: 500 uM
How it was run: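 Values give the fluorescence ratio for each switch-domain sequence, averaged from per-cluster ratios of summed target-cycle to summed buffer-cycle Cy3 intensity. The Cy3-labelled switching-strand clusters sat on a modified Illumina MiSeq flow-cell, were annealed to 100 nM quencher-labelled ATP aptamer, and were imaged in selection buffer, then after 15 min with 500 uM ATP at 22 °C. Five cycles ran with NaOH stripping and re-annealing between them, and clusters outside 100-1000 RFU were excluded.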
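Further: ATP exposure 15 min at 22 °C before imaging.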

Sequence	switch fluorescence ratio
GTGAGATGTA	0.991 ± 0.045
GTGAGCCACG	0.9932 ± 0.0014
GTGAGGAGGG	0.959 ± 0.07
GTGAGGCCCC	1 ± 0.02
GTGAGGGTTG	0.975 ± 0.03
GTGAGGTTTT	0.985 ± 0.021
GTGAGTTGCT	1.002 ± 0.005
GTGATAATGG	1.037 ± 0.0077
GTGATACACG	1.004 ± 0.0033
GTGATAGATT	1 ± 0.013
GTGATAGGGG	0.994 ± 0.053
GTGATATAGC	0.9807 ± 0.0071
GTGATATCTG	0.98 ± 0.038
GTGATATGGG	1.02 ± 0.036
GTGATGAACG	1.01 ± 0.092
GTGATGGAAA	0.964 ± 0.016
GTGATGGGGT	1.01 ± 0.038
GTGATGTTGG	1.02 ± 0.029
GTGATTGCGG	1.02 ± 0.069
GTGATTGGCG	0.971 ± 0.046
GTGATTGGGG	0.97 ± 0.028
GTGATTGTTT	1.009 ± 0.0091
GTGCAAAATG	1.0339 ± 0.00075
GTGCGATTGG	1.033 ± 0.0092
GTGCGCAATT	2.02 ± 0.082

Sequence	switch fluorescence ratio
GTGCGGGCGC	0.944 ± 0.04
GTGCGTTTGG	0.971 ± 0.022
GTGCTAGTCT	0.979 ± 0.067
GTGCTTAGGA	0.957 ± 0.029
GTGCTTGGCC	1 ± 0.047
GTGCTTGTGT	1.01 ± 0.04
GTGCTTTGCG	0.9928 ± 0.0014
GTGCTTTTGG	0.9997 ± 0.008
GTGGAAAGGA	0.991 ± 0.024
GTGGAAAGGG	1.01 ± 0.041
GTGGACACAC	1.04 ± 0.035
GTGGACCAGT	0.972 ± 0.024
GTGGACGG	0.9733 ± 0.0022
GTGGAGAAAT	1.04 ± 0.047
GTGGAGACGG	0.988 ± 0.034
GTGGAGGGGG	0.9841 ± 0.0047
GTGGAGGGTA	1.01 ± 0.029
GTGGATTGGC	0.982 ± 0.035
GTGGATTGTG	0.971 ± 0.067
GTGGCAGGTG	2.53 ± 0.053
GTGGCATAGC	0.981 ± 0.023
GTGGCGGGGG	1.01 ± 0.026
GTGGCTAACT	1.04 ± 0.035
GTGGCTTAGG	0.9796 ± 0.0035
GTGGCTTTTT	1 ± 0.037

Sequence	switch fluorescence ratio
GTGGGACCTT	1.06 ± 0.069
GTGGGACTGT	1.015 ± 0.0021
GTGGGAGCTG	0.99 ± 0.0079
GTGGGAGG	1.02 ± 0.025
GTGGGAGGAC	1.078 ± 0.0018
GTGGGATAGG	0.985 ± 0.038
GTGGGATTGA	0.9898 ± 0.0043
GTGGGCATGG	0.977 ± 0.022
GTGGGCGGCG	1.02 ± 0.064
GTGGGGAATG	0.986 ± 0.024
GTGGGGAGCG	0.994 ± 0.029
GTGGGGAGTC	0.992 ± 0.015
GTGGGGAGTT	0.99 ± 0.023
GTGGGGCCTG	0.955 ± 0.013
GTGGGGCGTT	1 ± 0.035
GTGGGGGACA	0.993 ± 0.04
GTGGGGGGCG	1 ± 0.042
GTGGGGGTTC	0.985 ± 0.041
GTGGGGTCGA	1.01 ± 0.04
GTGGGGTTAT	1 ± 0.013
GTGGGTACCA	0.968 ± 0.017
GTGGGTATTA	1 ± 0.023
GTGGGTGATA	0.994 ± 0.036
GTGGGTGTGT	1.02 ± 0.045
GTGGTAAAGG	0.9739 ± 0.0091

Sequence	switch fluorescence ratio
GTGGTAAATG	1.01 ± 0.035
GTGGTAGCCG	1.0015 ± 0.00029
GTGGTCGATG	0.953 ± 0.043
GTGGTCGGGC	1 ± 0.022
GTGGTGAGGA	0.953 ± 0.038
GTGGTGATGT	1.02 ± 0.012
GTGGTGGCGG	1.02 ± 0.017
GTGGTGGGTT	0.975 ± 0.018
GTGGTGTAAT	0.992 ± 0.0023
GTGTAACGGG	0.995 ± 0.027
GTGTATACAT	0.977 ± 0.066
GTGTATCCGT	0.994 ± 0.018
GTGTCAATTA	1.01 ± 0.021
GTGTCAGCGG	0.9762 ± 0.0088
GTGTCCGTTT	1.05 ± 0.039
GTGTCTGGGG	0.9858 ± 0.0076
GTGTGAAGGC	1.03 ± 0.02
GTGTGACAAA	1 ± 0.037
GTGTGAGGAG	1.05 ± 0.081
GTGTGAGGGC	0.948 ± 0.035
GTGTGAGGGT	1.04 ± 0.053
GTGTGAGTTC	1.01 ± 0.017
GTGTGCGGTG	0.982 ± 0.015
GTGTGGGGAC	0.988 ± 0.044
GTGTGGGT	1.002 ± 0.0028
